Earlier results on 1 substance are cited in paper PMC8494837.

The Kd is a measure of binding affinity in units of concentration.

For the series, the target named is Ubiquitin (Homo sapiens) (UniProt P0CG47).

Chain of CXCR4 (P61073 whole entry): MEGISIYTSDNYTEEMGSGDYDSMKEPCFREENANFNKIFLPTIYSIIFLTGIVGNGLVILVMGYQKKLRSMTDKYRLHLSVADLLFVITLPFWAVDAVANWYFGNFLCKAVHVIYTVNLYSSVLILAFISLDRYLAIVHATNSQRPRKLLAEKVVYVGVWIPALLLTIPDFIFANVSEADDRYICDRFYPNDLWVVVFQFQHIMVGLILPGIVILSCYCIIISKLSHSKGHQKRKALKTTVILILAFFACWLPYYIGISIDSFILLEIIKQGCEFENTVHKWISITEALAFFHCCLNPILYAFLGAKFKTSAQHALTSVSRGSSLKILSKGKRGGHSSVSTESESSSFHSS

Take CXCR4 (from UniProt P61073): the Kd was 0.084 µM.
